These results are taken from PMC10427625, “Structural basis for negative regulation of the Escherichia coli maltose system” (Nature Communications, 2023).

For one data set, the target named is ADP. The experiment in a line: luciferase assay of protein-bound nucleotide. Also on record: unit not given here. As to conditions: parent: est. 98; read off a plot.
The target in a further data set is ATP. The experiment in a line: luciferase assay of protein-bound nucleotide. On the set-up: unit not given here. Particulars: parent: est. 0; read off a plot.
Data set [1] deals with the molecule itself. Put plainly: SEC; Superose 6 Increase 10/300 GL, 4 °C; MalT pre-incubated at 20 °C for 20 min in buffer I; run in buffer E with 1 mM maltotriose and 0.4 mM ATP; self-association of MalT. For orientation: In gel filtration, larger molecules generally elute earlier.

Changes are numbered by the printed parent chain. Names and notes keep the numbering of the source.

Take “MalT (wild type), N-terminally His-tagged (from UniProt P06993) K6A”: the other: Nucleotide content with ADP came to 13; with ATP it was 58. With “MalT (wild type), N-terminally His-tagged (from UniProt P06993) R19A”, the other: Nucleotide content with ADP stood at 28; with ATP it was 7.5.

B1: MalT-E140A, N-terminally His-tagged (natural protein, Escherichia coli, UniProt P06993 1-901, looked up)
chain: MLIPSKLSRPVRLDHTVVRERLLAKLSGANNFRLALITSPAGYGKTTLISQWAAGKNDIGWYSLDEGDNQQERFASYLIAAVQQATNGHCAICETMAQKRQYASLTSLFAQLFIELAEWHSPLYLVIDDYHLITNPVIHASMRFFIRHQPENLTLVVLSRNLPQLGIANLRVRDQLLEIGSQQLAFTHQEAKQFFDCRLSSPIEAAESSRICDDVSGWATALQLIALSARQNTHSAHKSARRLAGINASHLSDYLVDEVLDNVDLATRHFLLKSAILRSMNDALITRVTGEENGQMRLEEIERQGLFLQRMDDTGEWFCYHPLFGNFLRQRCQWELAAELPEIHRAAAESWMAQGFPSEAIHHALAAGDALMLRDILLNHAWSLFNHSELSLLEESLKALPWDSLLENPQLVLLQAWLMQSQHRYGEVNTLLARAEHEIKDIREDTMHAEFNALRAQVAINDGNPDEAERLAKLALEELPPGWFYSRIVATSVLGEVLHCKGELTRSLALMQQTEQMARQHDVWHYALWSLIQQSEILFAQGFLQTAWETQEKAFQLINEQHLEQLPMHEFLVRIRAQLLWAWARLDEAEASARSGIEVLSSYQPQQQLQCLAMLIQCSLARGDLDNARSQLNRLENLLGNGKYHSDWISNANKVRVIYWQMTGDKAAAANWLRHTAKPEFANNHFLQGQWRNIARAQILLGEFEPAEIVLEELNENARSLRLMSDLNRNLLLLNQLYWQAGRKSDAQRVLLDALKLANRTGFISHFVIEGEAMAQQLRQLIQLNTLPELEQHRAQRILREINQHHRHKFAHFDENFVERLLNHPEVPELIRTSPLTQREWQVLGLIYSGYSNEQIAGELEVAATTIKTHIRNLYQKLGVAHRQDAVQHAQQLLKMMGYGV
notes: MalT of Escherichia coli, variant of plasmid pOM206 made by site-directed mutagenesis; source: E. coli BL21 (DE3) ΔmalT220, purified (Ni Sepharose, gel filtration)
B1: the binding result in data set [1] is given as “binds”.

B2: MalT-S8A, N-terminally His-tagged (natural protein, Escherichia coli, UniProt P06993 1-901, looked up)
chain: B1 chain with S8A, A140E
notes: as for B1
Turning to B2, the binding result in data set [1] is listed as “binds”.

B3: MalT-S5L, N-terminally His-tagged (natural protein, Escherichia coli, UniProt P06993 1-901, looked up)
chain: B1 chain with S5L, A140E
notes: as for B1
With B3, the binding result in data set [1] is “binds”.

B4: MalT-R9S, N-terminally His-tagged (natural protein, Escherichia coli, UniProt P06993 1-901, looked up)
chain: B1 chain with R9S, A140E
notes: as for B1
For B4, the binding result in data set [1] is reported as “binds”.

B5: MalT-R173A, N-terminally His-tagged (natural protein, Escherichia coli, UniProt P06993 1-901, looked up)
chain: B1 chain with A140E, R173A
notes: as for B1
As for B5, the binding result in data set [1] is given as “binds”.

B6: MalT-N169A, N-terminally His-tagged (natural protein, Escherichia coli, UniProt P06993 1-901, looked up)
chain: B1 chain with A140E, N169A
notes: as for B1
For B6, the binding result in data set [1] is on record as “binds”.

B7: MalT-R143A, N-terminally His-tagged (natural protein, Escherichia coli, UniProt P06993 1-901, looked up)
chain: B1 chain with A140E, R143A
notes: as for B1
B7: the binding result in data set [1] is reported as “binds”.
